For this test, the target named is recombinant human angiotensin-converting enzyme 2 (ACE2) receptor, biotinylated (human) (UniProt Q9BYF1). Nature of the test: SPR.

As to “SARS-CoV-2 spike S1 variant D614G (domain or fragment)”, the Kd was 42.2 nM, the koff is 0.00578 s⁻¹ and the kon amounted to 138000 M⁻¹ s⁻¹.

As to “recombinant original SARS-CoV-2 spike S1 protein (domain or fragment)”, the Kd was found to be 10.5 nM.

Values taken from paper PMC8443317.
